Data set [1] can be described thus: rescue of surface CD55 in PIGS-KO cells, flow cytometry. To be noted: glycan lost; control: wild-type PIGS. (In general: In flow cytometry, cells or beads pass a laser one at a time.)
Data set [2] can be described thus: rescue of surface CD55 in GPAA1-KO cells, flow cytometry. To be noted: glycan lost; control: wild-type GPAA1.
Data set [3] in a line: rescue of surface CD55 in PIGT-KO cells, flow cytometry. As to conditions: glycan lost; control: wild-type PIGT.

B1: PIGS: N267Q (protein)
parent chain: MAAAGAAATHLEVARGKRAALFFAAVAIVLGLPLWWKTTETYRASLPYSQISGLNALQLRLMVPVTVVFTRESVPLDDQEKLPFTVVHEREIPLKYKMKIKCRFQKAYRRALDHEEEALSSGSVQEAEAMLDEPQEQAEGSLTVYVISEHSSLLPQDMMSYIGPKRTAVVRGIMHREAFNIIGRRIVQVAQAMSLTEDVLAAALADHLPEDKWSAEKRRPLKSSLGYEITFSLLNPDPKSHDVYWDIEGAVRRYVQPFLNALGAAGNFSVDSQILYYAMLGVNPRFDSASSSYYLDMHSLPHVINPVESRLGSSAASLYPVLNFLLYVPELAHSPLYIQDKDGAPVATNAFHSPRWGGIMVYNVDSKTYNASVLPVRVEVDMVRVMEVFLAQLRLLFGIAQPQLPPKCLLSGPTSEGLMTWELDRLLWARSVENLATATTTLTSLAQLLGKISNIVIKDDVASEVYKAVAAVQKSAEELASGHLASAFVASQEAVTSSELAFFDPSLLHLLYFPDDQKFAIYIPLFLPMAVPILLSLVKIFLETRKSWRKPEKTD
Turning to B1, the enzymatic_activity entry in data set [1] is given as “no change”.

B2: PIGS: N370Q (protein)
parent chain: MAAAGAAATHLEVARGKRAALFFAAVAIVLGLPLWWKTTETYRASLPYSQISGLNALQLRLMVPVTVVFTRESVPLDDQEKLPFTVVHEREIPLKYKMKIKCRFQKAYRRALDHEEEALSSGSVQEAEAMLDEPQEQAEGSLTVYVISEHSSLLPQDMMSYIGPKRTAVVRGIMHREAFNIIGRRIVQVAQAMSLTEDVLAAALADHLPEDKWSAEKRRPLKSSLGYEITFSLLNPDPKSHDVYWDIEGAVRRYVQPFLNALGAAGNFSVDSQILYYAMLGVNPRFDSASSSYYLDMHSLPHVINPVESRLGSSAASLYPVLNFLLYVPELAHSPLYIQDKDGAPVATNAFHSPRWGGIMVYNVDSKTYNASVLPVRVEVDMVRVMEVFLAQLRLLFGIAQPQLPPKCLLSGPTSEGLMTWELDRLLWARSVENLATATTTLTSLAQLLGKISNIVIKDDVASEVYKAVAAVQKSAEELASGHLASAFVASQEAVTSSELAFFDPSLLHLLYFPDDQKFAIYIPLFLPMAVPILLSLVKIFLETRKSWRKPEKTD
For B2, the enzymatic_activity result in data set [1] was “no change”.

B3: GPAA1: N203Q (protein)
parent chain: MGLLSDPVRRRALARLVLRLNAPLCVLSYVAGIAWFLALVFPPLTQRTYMSENAMGSTMVEEQFAGGDRARAFARDFAAHRKKSGALPVAWLERTMRSVGLEVYTQSFSRKLPFPDETHERYMVSGTNVYGILRAPRAASTESLVLTVPCGSDSTNSQAVGLLLALAAHFRGQIYWAKDIVFLVTEHDLLGTEAWLEAYHDVNVTGMQSSPLQGRAGAIQAAVALELSSDVVTSLDVAVEGLNGQLPNLDLLNLFQTFCQKGGLLCTLQGKLQPEDWTSLDGPLQGLQTLLLMVLRQASGRPHGSHGLFLRYRVEALTLRGINSFRQYKYDLVAVGKALEGMFRKLNHLLERLHQSFFLYLLPGLSRFVSIGLYMPAVGFLLLVLGLKALELWMQLHEAGMGLEEPGGAPGPSVPLPPSQGVGLASLVAPLLISQAMGLALYVLPVLGQHVATQHFPVAEAEAVVLTLLAIYAAGLALPHNTHRVVSTQAPDRGWMALKLVALIYLALQLGCIALTNFSLGFLLATTMVPTAALAKPHGPRTLYAALLVLTSPAATLLGSLFLWRELQEAPLSLAEGWQLFLAALAQGVLEHHTYGALLFPLLSLGLYPCWLLFWNVLFWK
With B3, in data set [2], the enzymatic_activity result was “no change”.

B4: PIGT: N164Q (protein)
parent chain: MAAAMPLALLVLLLLGPGGWCLAEPPRDSLREELVITPLPSGDVAATFQFRTRWDSELQREGVSHYRLFPKALGQLISKYSLRELHLSFTQGFWRTRYWGPPFLQAPSGAELWVWFQDTVTDVDKSWKELSNVLSGIFCASLNFIDSTNTVTPTASFKPLGLANDTDHYFLRYAVLPREVVCTENLTPWKKLLPCSSKAGLSVLLKADRLFHTSYHSQAVHIRPVCRNARCTSISWELRQTLSVVFDAFITGQGKKDWSLFRMFSRTLTEPCPLASESRVYVDITTYNQDNETLEVHPPPTTTYQDVILGTRKTYAIYDLLDTAMINNSRNLNIQLKWKRPPENEAPPVPFLHAQRYVSGYGLQKGELSTLLYNTHPYRAFPVLLLDTVPWYLRLYVHTLTITSKGKENKPSYIHYQPAQDRLQPHLLEMLIQLPANSVTKVSIQFERALLKWTEYTPDPNHGFYVSPSVLSALVPSMVAAKPVDWEESPLFNSLFPVSDGSNYFVRLYTEPLLVNLPTPDFSMPYNVICLTCTVVAVCYGSFYNLLTRTFHIEEPRTGGLAKRLANLIRRARGVPPL
As to B4, in data set [3], the enzymatic_activity result is recorded as “no change”.

B5: PIGT: N327Q (protein)
parent chain: MAAAMPLALLVLLLLGPGGWCLAEPPRDSLREELVITPLPSGDVAATFQFRTRWDSELQREGVSHYRLFPKALGQLISKYSLRELHLSFTQGFWRTRYWGPPFLQAPSGAELWVWFQDTVTDVDKSWKELSNVLSGIFCASLNFIDSTNTVTPTASFKPLGLANDTDHYFLRYAVLPREVVCTENLTPWKKLLPCSSKAGLSVLLKADRLFHTSYHSQAVHIRPVCRNARCTSISWELRQTLSVVFDAFITGQGKKDWSLFRMFSRTLTEPCPLASESRVYVDITTYNQDNETLEVHPPPTTTYQDVILGTRKTYAIYDLLDTAMINNSRNLNIQLKWKRPPENEAPPVPFLHAQRYVSGYGLQKGELSTLLYNTHPYRAFPVLLLDTVPWYLRLYVHTLTITSKGKENKPSYIHYQPAQDRLQPHLLEMLIQLPANSVTKVSIQFERALLKWTEYTPDPNHGFYVSPSVLSALVPSMVAAKPVDWEESPLFNSLFPVSDGSNYFVRLYTEPLLVNLPTPDFSMPYNVICLTCTVVAVCYGSFYNLLTRTFHIEEPRTGGLAKRLANLIRRARGVPPL
Consider B5, for which the enzymatic_activity entry in data set [3] is recorded as “no change”.

B6: PIGT: N291Q (protein)
parent chain: MAAAMPLALLVLLLLGPGGWCLAEPPRDSLREELVITPLPSGDVAATFQFRTRWDSELQREGVSHYRLFPKALGQLISKYSLRELHLSFTQGFWRTRYWGPPFLQAPSGAELWVWFQDTVTDVDKSWKELSNVLSGIFCASLNFIDSTNTVTPTASFKPLGLANDTDHYFLRYAVLPREVVCTENLTPWKKLLPCSSKAGLSVLLKADRLFHTSYHSQAVHIRPVCRNARCTSISWELRQTLSVVFDAFITGQGKKDWSLFRMFSRTLTEPCPLASESRVYVDITTYNQDNETLEVHPPPTTTYQDVILGTRKTYAIYDLLDTAMINNSRNLNIQLKWKRPPENEAPPVPFLHAQRYVSGYGLQKGELSTLLYNTHPYRAFPVLLLDTVPWYLRLYVHTLTITSKGKENKPSYIHYQPAQDRLQPHLLEMLIQLPANSVTKVSIQFERALLKWTEYTPDPNHGFYVSPSVLSALVPSMVAAKPVDWEESPLFNSLFPVSDGSNYFVRLYTEPLLVNLPTPDFSMPYNVICLTCTVVAVCYGSFYNLLTRTFHIEEPRTGGLAKRLANLIRRARGVPPL
Regarding B6, in data set [3], the enzymatic_activity result was “no change”.
